The results in this text go back to patent publication US20220401557A1 (Chugai, published 2022).

Numbering of substitutions follows the chain as printed.

Sequences and labels used below:
B1: rCE115/GLSuPA04//GCH065 (bispecific antibody, human IgG1, kappa, N297A)
heavy 1: EVQLVETGGSLVQPGKSLKLTCATSGFTFSNAWMHWVRQSPEKQLEWVAQIKAKSNNYATYYAESVKGRFTISRDDSKSNIYLQMNSLKEEDTAVYYCRYVHYGAYYGVDAWGQGTSVTVSSASTKGPSVFPLAPSSKSTSGGTAALGCLVKDYFPEPVTVSWNSGALTSGVHTFPAVLQSSGLYSLSSVVTVPSSSLGTQTYICNVNHKPSNTKVDKKVEPKSCDKTHTCPPCPAPELRGGPKVFLFPPKPKDTLMISRTPEVTCVVVDVSHEDPEVKFNWYVDGVEVHNAKTKPREEQYASTYRVVSVLTVLHQDWLNGKEYKCKVSNKALPAPIEKTISKAKGQPREPQVYTLPPSRKEMTKNQVSLTCLVKGFYPSDIAVEWESNGQPENNYKTTPPYLDSDGSFFLYSKLTVDKSRWQQGNVFSCSVMHEALHNHYTQKSLSLSP
light 1: QDGNEEMGGGSGGGSGGGSLSGRSDNHGGGSDIVMTQSPLSLPVTPGEPASISCRSSQSLVHSNRNTYLHWYQQKPGQAPRLLIYKVSNRFSGVPDRFSGSGSGTDFTLKISRVEAEDVGVYYCGQGTQVPYTFGQGTKLEIKRTVAAPSVFIFPPSDEQLKSGTASVVCLLNNFYPREAKVQWKVDNALQSGNSQESVTEQDSKDSTYSLSSTLTLSKADYEKHKVYACEVTHQGLSSPVTKSFNRGEC
heavy 2: QVQLVQSGAEVKKPGASVTVSCKASGYTFTDYEMHWIRQPPGEGLEWIGAIDGPTPDTAYSEKFKGRVTLTADKSTSTAYMELSSLTSEDTAVYYCTRFYSYTYWGQGTLVTVSSASTKGPSVFPLAPSSKSTSGGTAALGCLVKDYFPEPVTVSWNSGALTSGVHTFPAVLQSSGLYSLSSVVTVPSSSLGTQTYICNVNHKPSNTKVDKKVEPKSCDKTHTCPPCPAPELRGGPKVFLFPPKPKDTLMISRTPEVTCVVVDVSHEDPEVKFNWYVDGVEVHNAKTKPREEQYASTYRVVSVLTVLHQDWLNGKEYKCKVSNKALPAPIEKTISKAKGQPREPQVYTLPPSREEMTKNQVSLTCLVKGFYPSDIAVEWESNGQPENNYKTTPPYLDSDGSFFLYSKLTVDKSRWQQGNVFSCSVMHEALHNHYTQESLSLSP
light 2: DIVMTQSPLSLPVTPGEPASISCRSSQPLVHSNRNTYLHWYQQKPGQAPRLLIYKVSNRFSGVPDRFSGSGSGTDFTLKISRVEAEDVGVYYCGQGTQVPYTFGQGTKLEIKRTVAAPSVFIFPPSDEQLKSGTASVVCLLNNFYPREAKVQWKVDNALQSGNSQESVTEQDSKDSTYSLSSTLTLSKADYEKHKVYACEVTHQGLSSPVTKSFNRGEC
B2: ANuPA20L/GLS//GCH065 (bispecific antibody, human IgG1, kappa, N297A)
heavy 1: QDGNEEMGGITQTPYKVSISGGGGSGGGGSGGGGSLSGRSDNHGGGSQVQLVESGGGLVQPGRSLRLSCAASGFTFSNAWMHWVRQAPGKGLEWVAQIKDKANGYNAYYAESVKGRFTISRDDSKNSIYLQMNSLKTEDTAVYYCRYVHYTTYAGFSYKFGVDAWGQGTTVTVSSASTKGPSVFPLAPSSKSTSGGTAALGCLVKDYFPEPVTVSWNSGALTSGVHTFPAVLQSSGLYSLSSVVTVPSSSLGTQTYICNVNHKPSNTKVDKKVEPKSCDKTHTCPPCPAPELRGGPKVFLFPPKPKDTLMISRTPEVTCVVVDVSHEDPEVKFNWYVDGVEVHNAKTKPREEQYASTYRVVSVLTVLHQDWLNGKEYKCKVSNKALPAPIEKTISKAKGQPREPQVYTLPPSRKEMTKNQVSLTCLVKGFYPSDIAVEWESNGQPENNYKTTPPYLDSDGSFFLYSKLTVDKSRWQQGNVFSCSVMHEALHNHYTQKSLSLSP
light 1: B1 light 2 with P28S
heavy 2: B1 heavy 2
light 2: B1 light 2
B3: rCE115/GLSuPA27//GCH065 (bispecific antibody, human IgG1, kappa, N297A)
heavy 1: B1 heavy 1
light 1: QDGNEEMGGITQTPYKVSISGTTVILTLSGRSDNHDIVMTQSPLSLPVTPGEPASISCRSSQSLVHSNRNTYLHWYQQKPGQAPRLLIYKVSNRFSGVPDRFSGSGSGTDFTLKISRVEAEDVGVYYCGQGTQVPYTFGQGTKLEIKRTVAAPSVFIFPPSDEQLKSGTASVVCLLNNFYPREAKVQWKVDNALQSGNSQESVTEQDSKDSTYSLSSTLTLSKADYEKHKVYACEVTHQGLSSPVTKSFNRGEC
heavy 2: B1 heavy 2
light 2: B1 light 2
B4: rCE115/rCE115uPA04//GCH065 (bispecific antibody, human IgG1, kappa, N297A)
heavy 1: B1 heavy 1
light 1: QDGNEEMGGGSGGGSGGGSLSGRSDNHGGGSDVVMTQTPVSMSVSLGGQVSISCRSSQSLVHNNGNTYVSWYIQKPSQSPQLLIYKVSNRFSGISDRFSGSGSGTDFTLKISRVEPDDLGVYYCGQGTQDPYTFGAGTKLELKRTVAAPSVFIFPPSDEQLKSGTASVVCLLNNFYPREAKVQWKVDNALQSGNSQESVTEQDSKDSTYSLSSTLTLSKADYEKHKVYACEVTHQGLSSPVTKSFNRGEC
heavy 2: B1 heavy 2
light 2: B1 light 2
B5: rCE115/rCE115//GCH065 (bispecific antibody, human IgG1, kappa, N297A)
heavy 1: B1 heavy 1
light 1: DVVMTQTPVSMSVSLGGQVSISCRSSQSLVHNNGNTYVSWYIQKPSQSPQLLIYKVSNRFSGISDRFSGSGSGTDFTLKISRVEPDDLGVYYCGQGTQDPYTFGAGTKLELKRTVAAPSVFIFPPSDEQLKSGTASVVCLLNNFYPREAKVQWKVDNALQSGNSQESVTEQDSKDSTYSLSSTLTLSKADYEKHKVYACEVTHQGLSSPVTKSFNRGEC
heavy 2: B1 heavy 2
light 2: B1 light 2
B6: hCE115HAuPA20L/GLS//GCH065 (bispecific antibody, human IgG1, kappa, N297A)
heavy 1: QDGNEEMGGITQTPYKVSISGGGGSGGGGSGGGGSLSGRSDNHGGGSQVQLVESGGGVVQPGRSLRLSCAASGFTFSNAWMHWVRQAPGKGLEWVAQIKAKSNNYATYYAESVKGRFTISRDDSKNSLYLQMNSLKTEDTAVYYCRYVHYGAYYGVDAWGQGTTVTVSSASTKGPSVFPLAPSSKSTSGGTAALGCLVKDYFPEPVTVSWNSGALTSGVHTFPAVLQSSGLYSLSSVVTVPSSSLGTQTYICNVNHKPSNTKVDKKVEPKSCDKTHTCPPCPAPELRGGPKVFLFPPKPKDTLMISRTPEVTCVVVDVSHEDPEVKFNWYVDGVEVHNAKTKPREEQYASTYRVVSVLTVLHQDWLNGKEYKCKVSNKALPAPIEKTISKAKGQPREPQVYTLPPSRKEMTKNQVSLTCLVKGFYPSDIAVEWESNGQPENNYKTTPPYLDSDGSFFLYSKLTVDKSRWQQGNVFSCSVMHEALHNHYTQKSLSLSP
light 1: B1 light 2 with P28S
heavy 2: B1 heavy 2
light 2: B1 light 2
B7: rCE115/GLSuPA20//GCH065 (bispecific antibody, human IgG1, kappa, N297A)
heavy 1: B1 heavy 1
light 1: QDGNEEMGGITQTPYKVSISLSGRSDNHGGGSDIVMTQSPLSLPVTPGEPASISCRSSQSLVHSNRNTYLHWYQQKPGQAPRLLIYKVSNRFSGVPDRFSGSGSGTDFTLKISRVEAEDVGVYYCGQGTQVPYTFGQGTKLEIKRTVAAPSVFIFPPSDEQLKSGTASVVCLLNNFYPREAKVQWKVDNALQSGNSQESVTEQDSKDSTYSLSSTLTLSKADYEKHKVYACEVTHQGLSSPVTKSFNRGEC
heavy 2: B1 heavy 2
light 2: B1 light 2
B8: hCE115HAuPA04/GLS//GCH065 (bispecific antibody, human IgG1, kappa, N297A)
heavy 1: QDGNEEMGGGSGGGSGGGSLSGRSDNHGGGSQVQLVESGGGVVQPGRSLRLSCAASGFTFSNAWMHWVRQAPGKGLEWVAQIKAKSNNYATYYAESVKGRFTISRDDSKNSLYLQMNSLKTEDTAVYYCRYVHYGAYYGVDAWGQGTTVTVSSASTKGPSVFPLAPSSKSTSGGTAALGCLVKDYFPEPVTVSWNSGALTSGVHTFPAVLQSSGLYSLSSVVTVPSSSLGTQTYICNVNHKPSNTKVDKKVEPKSCDKTHTCPPCPAPELRGGPKVFLFPPKPKDTLMISRTPEVTCVVVDVSHEDPEVKFNWYVDGVEVHNAKTKPREEQYASTYRVVSVLTVLHQDWLNGKEYKCKVSNKALPAPIEKTISKAKGQPREPQVYTLPPSRKEMTKNQVSLTCLVKGFYPSDIAVEWESNGQPENNYKTTPPYLDSDGSFFLYSKLTVDKSRWQQGNVFSCSVMHEALHNHYTQKSLSLSP
light 1: B1 light 2 with P28S
heavy 2: B1 heavy 2
light 2: B1 light 2
B9: rCE115/rCE115GS//GCH065 (bispecific antibody, human IgG1, kappa, N297A)
heavy 1: B1 heavy 1
light 1: QDGNEGGGSGGGSGGGSDVVMTQTPVSMSVSLGGQVSISCRSSQSLVHNNGNTYVSWYIQKPSQSPQLLIYKVSNRFSGISDRFSGSGSGTDFTLKISRVEPDDLGVYYCGQGTQDPYTFGAGTKLELKRTVAAPSVFIFPPSDEQLKSGTASVVCLLNNFYPREAKVQWKVDNALQSGNSQESVTEQDSKDSTYSLSSTLTLSKADYEKHKVYACEVTHQGLSSPVTKSFNRGEC
heavy 2: B1 heavy 2
light 2: B1 light 2

CD3 on NFAT-RE-luc2-Jurkat cells, sequence (P07766 23-207): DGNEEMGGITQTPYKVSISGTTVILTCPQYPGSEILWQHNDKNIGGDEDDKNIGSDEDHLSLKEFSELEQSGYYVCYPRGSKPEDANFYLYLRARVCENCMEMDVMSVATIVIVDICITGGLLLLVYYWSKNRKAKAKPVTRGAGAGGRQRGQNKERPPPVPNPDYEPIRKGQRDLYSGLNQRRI

This test concerns the target CD3 on NFAT-RE-luc2-Jurkat cells (human, UniProt P07766 23-207). Nature of the test: cell-based or functional assay.
As for B1, the “increase rate due to the protease treatment (luciferase, uPA-treated / untreated), antibody 0.1 nM” value worked out at 6.4 ratio and the “increase rate due to the protease treatment (luciferase, uPA-treated / untreated), antibody 1 nM” value was determined as 3.1 ratio.

For the molecule B2, the “increase rate due to the protease treatment (luciferase, uPA-treated / untreated), antibody 0.1 nM” value was determined as 1 ratio and the “increase rate due to the protease treatment (luciferase, uPA-treated / untreated), antibody 1 nM” value was 1.7 ratio.

Consider B3, for which the “increase rate due to the protease treatment (luciferase, uPA-treated / untreated), antibody 0.1 nM” value is 1 ratio and the “increase rate due to the protease treatment (luciferase, uPA-treated / untreated), antibody 1 nM” value amounted to 1.5 ratio.

For the molecule B4, the “increase rate due to the protease treatment (luciferase, uPA-treated / untreated), antibody 0.1 nM” value came to 2.7 ratio and the “increase rate due to the protease treatment (luciferase, uPA-treated / untreated), antibody 1 nM” value was found to be 3.8 ratio.

Regarding B5, the “increase rate due to the protease treatment (luciferase, uPA-treated / untreated), antibody 0.1 nM” value worked out at 0.7 ratio and the “increase rate due to the protease treatment (luciferase, uPA-treated / untreated), antibody 1 nM” value worked out at 0.9 ratio.

With B6, the “increase rate due to the protease treatment (luciferase, uPA-treated / untreated), antibody 0.1 nM” value is 1.2 ratio and the “increase rate due to the protease treatment (luciferase, uPA-treated / untreated), antibody 1 nM” value was determined as 2.4 ratio.

On to B7, for which the “increase rate due to the protease treatment (luciferase, uPA-treated / untreated), antibody 0.1 nM” value stood at 2.8 ratio and the “increase rate due to the protease treatment (luciferase, uPA-treated / untreated), antibody 1 nM” value turned out to be 1.6 ratio.

B8: the “increase rate due to the protease treatment (luciferase, uPA-treated / untreated), antibody 0.1 nM” value came out at 1.3 ratio and the “increase rate due to the protease treatment (luciferase, uPA-treated / untreated), antibody 1 nM” value was determined as 6.3 ratio.

On to B9, for which the “increase rate due to the protease treatment (luciferase, uPA-treated / untreated), antibody 0.1 nM” value came to 0.9 ratio and the “increase rate due to the protease treatment (luciferase, uPA-treated / untreated), antibody 1 nM” value turned out to be 0.6 ratio.
